Tests used:
[1] = tested on: versican GFP transgenic mouse pelage DP cells; test: RT-PCR analysis of gene expression in DP cells co-cultured with feeder cells; assay type: cell-based; settings: freshly isolated DP cells co-cultured with feeder layers
Experimental: Total RNA was isolated and RT PCR performed as described in Kishimoto et al. (1999) Proc. Natl Acad. Sci. USA 96:7336-7341, using an annealing temperature of 58° C. The primers employed are listed below. With the exception of Wnts 4, 5 and 7, the primers were designed to distinguish between mouse and chicken orthologues and the lack of cross reaction to chick sequences was confirmed on cDNA from feeder cells alone.
Fresh mouse pelage DP cells were obtained from versican GFP transgenic newborn skin by high-speed cell sorting (MoFLO) as described previously in Kishimoto et al., supra. Chick embryo fibroblasts (CEFs) were infected with RCASBP(A) retroviral vectors encoding chick Shh, as described in Riddle et al. (1993) Cell 75:1401-1416, Wnt3a, as described in Kengaku et al. (1998) Science 280:1274-1277, Wnt4, Wnt5a (Noramly and Morgan, in prep), or Wnt7a, as described in Riddle et al. (1995) Cell 83:631-640, or vector alone as described, as described in Morgan et al. in Methods in Cell Biology (ed. Bonner-Fraser) pp. 185-218 (Academic Press, San Diego, 1996). GFP positive mouse DP cells were added onto 30-50% confluent feeder cells to achieve a ratio of 1:3 (mouse:chick). For the flow cytometric analysis, cells were co-cultured in 24 well dishes for 48-96 hrs. […]

[2] = tested on: hair inductive activity of DP cells; test: Skin reconstitution assay: co-cultured DP cells plus keratinocytes grafted on nude mouse hosts; assay type: in vivo
Source text: (§1) Fresh mouse pelage DP cells were obtained from versican GFP transgenic newborn skin by high-speed cell sorting (MoFLO) as described previously in Kishimoto et al., supra. Chick embryo fibroblasts (CEFs) were infected with RCASBP(A) retroviral vectors encoding chick Shh, as described in Riddle et al. (1993) Cell 75:1401-1416, Wnt3a, as described in Kengaku et al. (1998) Science 280:1274-1277, Wnt4, Wnt5a (Noramly and Morgan, in prep), or Wnt7a, as described in Riddle et al. (1995) Cell 83:631-640, or vector alone as described, as described in Morgan et al. in Methods in Cell Biology (ed. Bonner-Fraser) pp. 185-218 (Academic Press, San Diego, 1996). GFP positive mouse DP cells were added onto 30-50% confluent feeder cells to achieve a ratio of 1:3 (mouse:chick). For the flow cytometric analysis, cells were co-cultured in 24 well dishes for 48-96 hrs. For the grafting experiment co-cultured cells were passaged 2-3 times in 10 cm dishes to generate the 2×10^6 cells required for each graft.
The reconstitution assay was performed as described in Kishimoto et al., supra. Primary keratinocytes were prepared from 2 newborn pups per graft and combined with 2×10^6 DP cells in the graft chamber. Hair growth was monitored two weeks after grafting and weekly thereafter.

[3] = tested on: versican GFP transgenic mouse pelage DP cells; test: Flow cytometric analysis of GFP expression in DP cells co-cultured with feeder cells; assay type: cell-based; settings: for GFP expression (GFP fluorescence) of DP cells: freshly isolated DP cells co-cultured with feeder cells expressing the protein, FACS analysis
Source text: as §1
Cells were trypsinized and resuspended in 0.5 ml PBS with 1% BSA. Flow cytometric analysis was performed by FACScan (Becton Dickinson). DP cells were labeled with mouse MHC class II monoclonal antibody and incubated with secondary IgG conjugated to PE. The PE negative avian cells fell below the lower gate in FIG. 3 and were excluded from the analysis of GFP expression.

[4] = DP cells maintained in culture until GFP expression and hair inductive activity were lost

| Molecule | GFP RNA levels in DP cells [1] | reactivation of hair inductive activity in DP cells that lost it in culture [2, 4] | hair growth / hair inductive activity of co-cultured DP cells ([2]; reconstituted skin on nude mouse host, compared to cells co-cultured with control feeders or Shh expression cells) | hair in graft of treated DP cells ([2]; three weeks after grafting to nude mouse, DP cells co-cultured with feeder cells, combined with keratinocytes) | reactivation of GFP expression in DP cells that lost it in culture [3, 4] | GFP expression (GFP fluorescence) of DP cells [3] |
| --- | --- | --- | --- | --- | --- | --- |
| Wnt3a: Wnt protein supplied by chick embryo fibroblast feeder cells infected with RCASBP(A) retroviral vector encoding Wnt3a (protein, UniProt Q2LMP1 19-352, looked up) Protein Wnt-3a: SYPIWWSLAIGHQYSSLGTQPILCGSIPGLVPKQLRFCRNYVEIMPSVAEGVKIGIQECQHQFRGRRWNCTTVNDSLAIFGPVLDKATRESAFVHAIASAGVAFAVTRSCAEGSATICGCDTRHKGSPGEGWKWGGCSEDVEFGSMVSREFADARENRPDARSAMNRHNNEAGRTSIIELMHLKCKCHGLSGSCEVKTCWWSQPDFRVIGDYLKDKYDSASEMVVEKHRESRGWVETLRPKYNFFKAPTEKDLVYYENSPNFCEPNPETGSFGTRDRICNVTSHGIDGCDLLCCGRGHNTRTEKRKEKCHCIFHWCCYVRCQECIRVYDVHTCK | maintained | cannot reactivate | dramatic increase in hair growth | formed a dense patch of hair in the graft | cannot reactivate | maintenance of GFP fluorescence in the majority of the DP cells |
| Wnt 4: Wnt protein supplied by chick embryo fibroblast feeder cells infected with RCASBP(A) retroviral vector encoding Wnt4 (protein, UniProt P49337 23-351, looked up) Protein Wnt-4: SNWLYLAKLSSVGSISEEETCEKLKGLIQRQVQMCKRNLEVMDSVRRGAQLAIEECQYQFRNRRWNCSTLDTLPVFGKVVTQGTREAAFVYAISSAGVAFAVTRACSSGELDKCGCDRTVQGGSPQGFQWSGCSDNIAYGVAFSQSFVDVRERSKGASSNRALMNLHNNEAGRKAILNNMRVECKCHGVSGSCEFKTCWKAMPPFRKVGNVLKEKFDGATEVEQSEIGSTKVLVPKNSQFKPHTDEDLVYLDSSPDFCDHDLKNGVLGTSGRQCNKTSKAIDGCELMCCGRGFHTDEVEVVERCSCKFHWCCSVKCKPCHRVVEIHTCR | – | – | – | – | – | some maintenance of GFP expression but were less potent than either Wnt3a or 7a |
